From publication PMC8080410 (Bioactive Materials, 2021) come the findings set out here.

B1: E-OVA_(323-336) (peptide)
peptide: EWEAEAEAEWEGGGQAVHAAHAEINEAGR

The series “TEM + DLS” deals with the molecule itself. In words: TEM + DLS.
The target in the series “E-OVA_(323-336)” is B1. In words: TEM + rheology + circular dichroism. For orientation: Circular dichroism is the unequal absorption of left and right circularly polarised light.

In the case of B1, in “TEM + DLS”, the binding result was “binds”.

With KWKAKAKAKWKGGGSIINFEKL [K-OVA_(257-264)], the binding result in “TEM + DLS” and with E-OVA_(323-336) was “binds” throughout.
